In patent publication US20240091345A1:

What was measured:
[1] = molecular target: Recombinant gE/gI heterodimer protein (BMP1299) from HSV-1 (HSV-1) (UniProt P06487); assay: indirect ELISA on coated HSV-1 gE/gI
[2] = molecular target: Recombinant gI protein (~46 kDa) from HSV-2 (BMP1052b or BMP1292) (HSV-2); assay: indirect ELISA on coated HSV-2 gI, one mouse
[3] = molecular target: Recombinant gE protein (~51 kDa) from HSV-2 (BMP1049 or BMP1291) (HSV-2); assay: indirect ELISA on coated HSV-2 gE
[4] = molecular target: Recombinant gI protein (~46 kDa) from HSV-2 (BMP1052b or BMP1292) (HSV-2); assay: indirect ELISA on coated HSV-2 gI

UniProt P06487, sequence (P06487 whole entry, one chain of several): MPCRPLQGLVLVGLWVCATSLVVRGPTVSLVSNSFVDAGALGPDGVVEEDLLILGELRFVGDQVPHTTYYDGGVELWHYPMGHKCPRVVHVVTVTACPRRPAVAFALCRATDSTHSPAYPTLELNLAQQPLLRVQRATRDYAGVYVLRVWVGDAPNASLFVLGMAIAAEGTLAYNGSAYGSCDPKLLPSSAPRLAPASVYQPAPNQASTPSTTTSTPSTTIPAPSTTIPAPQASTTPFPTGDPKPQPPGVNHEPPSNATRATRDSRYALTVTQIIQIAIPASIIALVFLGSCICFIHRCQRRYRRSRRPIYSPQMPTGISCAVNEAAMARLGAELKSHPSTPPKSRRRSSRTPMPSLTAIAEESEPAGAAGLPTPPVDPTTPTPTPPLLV

## serum of CB6F1 mice injected with NaCl 150 mM (Example 2, group 7, negative control) (antibody)
[1]
  IgG titer: 11 EU/mL

## serum of CB6F1 mice injected with NaCl 150 mM (Example 1, group 6, negative control) (antibody)
[2]
  IgG titer: 135 EU/mL

## serum of CB6F1 mice injected with NaCl 150 mM (Example 3, group 7, negative control) (antibody)
[3]
  IgG titer: 17 EU/mL
[4]
  IgG titer: 17 EU/mL
